Test results reported in patent publication US20090092595A1, “Suppression of sPLA2-integrin binding for treating an inflammatory condition” (REGENTS OF THE UNIVERSITY OF CALIFORNIA, priority 2007, published 2009).
Blank lines part the entries; values can stand above or below the molecule they belong to.

Assays:
[1] = Bradley et al. 2005; cited from earlier work
[2] = Bowton et al. 2005; cited from earlier work
soluble integrin αvβ3 = target: T1, soluble integrin αvβ3 (Homo sapiens, UniProt P05106+P06756); experiment: Binding of soluble αvβ3 to immobilized sPLA2-IIA (ELISA-type assay); settings: immobilized protein, 20 μg/ml coating
T1 construct: Recombinant soluble αvβ3 was synthesized as previously described; made in house
Description: Binding of soluble αvβ3 to immobilized sPLA2-IIA sPLA2-IIA was immobilized to wells of 96 well microtiter plates and the remaining protein-binding sites were blocked by BSA as described (Mori, S. et al., J Biol Chem, 283:18066-18075 (2008)). Soluble recombinant αvβ3 at 5 μg/ml in Hepes-Tyrodes buffer supplemented with 1 mM MnCl2 was added to the well and incubated for 2 h. Bound αvβ3 was measured using anti-integrin β3 (mAb AV-10) followed by HRP-conjugated goat anti-mouse IgG and peroxidase substrates.

integrin α4β1 = target: T2, integrin α4β1 (Homo sapiens, UniProt P05556+P13612); experiment: Adhesion of α4-K562 cells (recombinant α4β1) to immobilized sPLA2-IIA; format: cell-based; settings: data not shown
T2 construct: K562 cells have endogenous α5β1; expressed in transfected cells; host or cells: K562
Description: FIG. 5. sPLA2-IIA binding to integrin α4β1. a) Cells expressing recombinant α4β1 adhered to wt sPLA2-IIA better than cells expressing other recombinant integrins. We used transfected K562 cells clonally express different human integrins for adhesion assays. Low background adhesion to BSA was subtracted. […] Wells of 96-well microtiter plate were coated with VCAM-1 and FN-GST, and incubated with U937 cells (1×10^4 cells/plate) in the presence of the increasing concentrations of sPLA2-IIA for 1 h at 37° C. Adherent cells were quantified using endogenous phosphatase after gently rinsing the well to remove unbound cells. Data is shown as means+/−SEM of triplicate experiments. *P=0.0101 and **P<0.0001 by t-test. c) Amino acid sequence in the α4 subunit that is critical for VCAM-1 and CS-1 binding is also critical for sPLA2-IIA binding. CHO cells that clonally express wt or mutant α4 (Irie, A. et al., Embo J, 14(22): 5550-5556 (1995)) were used for adhesion assays. Data is shown as means+/−SEM of triplicate experiments. Similar results were obtained using K562 cells expressing α4 mutants (not shown).
Other methods We performed docking simulation of interaction between sPLA2-IIA and integrin αvβ3 using the AutoDock3 as previously described (Mori, S. et al., J Biol Chem, in press (2008)). […]

[3] = target: integrin αvβ3 on CHO cells expressing recombinant αvβ3 (β3-CHO) and on proteoglycan-deficient pgs745 cells (β3-745) (human) (UniProt P05106); experiment: cell adhesion to coated sPLA2-IIA, 7E3 at 10 µg/ml in the medium; about the background level
[4] = target: T3, integrin α4β1 on K562 cells expressing recombinant α4β1 (α4-K562) and on U937 human monocytic lymphoma cells (human, UniProt P13612 34-1032; P05556 21-798); experiment: cell adhesion of α4-K562 cells to coated sPLA2-IIA
T3 construct: whole, on cells; Recombinant α4 in K562 cells; endogenous α4β1 in U937 cells; Treated as one molecule (human α4β1 on cells); also called α4-K562 cells; U937 cells (α4β1+)

[5] = target: T4, recombinant soluble integrin αvβ3 (UniProt P06756 31-992; P05106 27-718); experiment: SPR (Biacore), soluble αvβ3 amine-coupled to CM5 chip, sPLA2-IIA injected, 1 mM Mn2+, 1:1 binding with drifting baseline model
T4 construct: Soluble heterodimer; whole entries named only; also called soluble αvβ3; soluble recombinant αvβ3
Description: (§4) The mutant proteins were tested for binding to soluble integrin αvβ3.
(§5) Surface plasmon resonance study Recombinant soluble integrin αvβ3 was immobilized to Biacore Sensor chip CM5 (Biacore, Piscataway, N.J.) by the standard amine coupling method. […] Then the sensor chip was washed with the running buffer alone at the same flow rate for another 5 min (the dissociation phase). Two consecutive one-minute injections of 0.5 M, pH 8 EDTA solution at the same flow rate were used to regenerate the chip for another cycle of injection. The resonance unit elicited from the reference flow cell was subtracted from the resonance unit elicited from the integrin flow cell to eliminate the non-specific protein-flow cell interaction and the bulk refractive index effect. The recorded binding curves were fitted with the “1:1 binding with drifting baseline model” by using the Biaevaluation Version 4.1.

ERK1/2 = experiment: MAP kinase (ERK1/2) activation in U937 cells, western blotting; format: cell-based, human; settings: 0.5 μg/ml, 10 min, 37° C.
Description: (§1) U937 cells (αvβ3+, α4β1+) were plated in wells of 96-well plates (10,000 cells/well), and serum-starved for 48 h. After treatment with wt or mutant sPLA2-IIA for 48 h, we measured cell proliferation by MTS assays. […] U937 cells were serum-starved for 24 h, and stimulated with wt and mutant sPLA2-IIA (0.5 μg/ml) for 10 min at 37° C. Cell lysates were analyzed by western blotting with anti-phospho ERK1/2 or anti-ERK1/2 antibodies. The blot is representative of three independent experiments.
(§2) Cell proliferation and MAP kinase activation K562 cells and human monocytic lymphoma U937 cells were maintained in RPM11640 medium supplemented with 10% FCS. Cells were plated in 96-well plates (1×10^4 cells/well), and serum-starved for 48 h at 37° C. in 5% CO2 atmosphere. Cells were then treated with or without sPLA2-IIA in medium without serum for 48 h. Cell proliferation was determined by MTS assays using the Aqueous Cell Proliferation Assay Kit (Promega). For MAP kinase activation assays, cells were serum starved in RPMI1640 medium supplemented with 0.4% FCS for 24 h, and stimulated with Wt and mutant sPLA2-IIA (0.5 μg/ml) for 10 min at 37° C. ERK1/2 activation was measured as described (Mori, S. et al., J Biol Chem, in press (2008)).

[6] = test system: U937 human monocytic lymphoma cells; experiment: Proliferation of U937 cells (MTS assay); format: cell-based; settings: serum-starved 48 h, treated 48 h
Description: as §1, §2

α4-K562 cells = experiment: Proliferation of α4-K562 cells (MTS assay); format: cell-based, human; settings: serum-starved 48 h, stimulated 48 h
Description: (§3) Cells were serum-starved for 48 h and stimulated with sPLA2-IIA for 48 h. Cell proliferation was determined by MTS assays. Data is shown as means+/−SEM of triplicate experiments. α4- and αvβ3-K562 cells proliferated faster than mock-K562 cells. […] Serum-starved cells were stimulated with wt or mutant sPLA2-IIA (0.5 μg/ml) for 48 h. Data is shown as means+/−SEM of triplicate experiments. α4-K562 and αvβ3-K562 cells grew faster than mock K562 cells with wt and H47Q sPLA2-IIA (*P<0.05 by t-test).
as §2

[7] = PLA2 activity by arachidonoyl-Thio-PC hydrolysis; format: biochemical; settings: effect of mutation on catalytic activity
Description: Other methods We performed docking simulation of interaction between sPLA2-IIA and integrin αvβ3 using the AutoDock3 as previously described (Mori, S. et al., J Biol Chem, in press (2008)). Adhesion assays were performed as described previously (Eto, K. et al., J. Biol. Chem., 277:17804-17810 (2002)). mAb 7E3 was used at 10 μg/ml. We assayed PLA2 activity by arachidonoyl-Thio-PC hydrolysis (Cayman Chemicals, Ann Arbor, Mich.) as described (Reynolds, L. J. et al., Anal. Biochem., 217:25-32 (1994)).

αvβ3-K562 cells = experiment: Proliferation of αvβ3-K562 cells (MTS assay); format: cell-based, human; settings: serum-starved 48 h, stimulated 48 h
Description: as §3, §2

[8] = target: T4, recombinant soluble integrin αvβ3; experiment: SPR (Biacore), soluble αvβ3 amine-coupled to CM5 chip, mutant injected, 1 mM Mn2+, 1:1 binding with drifting baseline model
Description: as §4, §5

T4 sequence (P06756 31-992, chain 1 of 2): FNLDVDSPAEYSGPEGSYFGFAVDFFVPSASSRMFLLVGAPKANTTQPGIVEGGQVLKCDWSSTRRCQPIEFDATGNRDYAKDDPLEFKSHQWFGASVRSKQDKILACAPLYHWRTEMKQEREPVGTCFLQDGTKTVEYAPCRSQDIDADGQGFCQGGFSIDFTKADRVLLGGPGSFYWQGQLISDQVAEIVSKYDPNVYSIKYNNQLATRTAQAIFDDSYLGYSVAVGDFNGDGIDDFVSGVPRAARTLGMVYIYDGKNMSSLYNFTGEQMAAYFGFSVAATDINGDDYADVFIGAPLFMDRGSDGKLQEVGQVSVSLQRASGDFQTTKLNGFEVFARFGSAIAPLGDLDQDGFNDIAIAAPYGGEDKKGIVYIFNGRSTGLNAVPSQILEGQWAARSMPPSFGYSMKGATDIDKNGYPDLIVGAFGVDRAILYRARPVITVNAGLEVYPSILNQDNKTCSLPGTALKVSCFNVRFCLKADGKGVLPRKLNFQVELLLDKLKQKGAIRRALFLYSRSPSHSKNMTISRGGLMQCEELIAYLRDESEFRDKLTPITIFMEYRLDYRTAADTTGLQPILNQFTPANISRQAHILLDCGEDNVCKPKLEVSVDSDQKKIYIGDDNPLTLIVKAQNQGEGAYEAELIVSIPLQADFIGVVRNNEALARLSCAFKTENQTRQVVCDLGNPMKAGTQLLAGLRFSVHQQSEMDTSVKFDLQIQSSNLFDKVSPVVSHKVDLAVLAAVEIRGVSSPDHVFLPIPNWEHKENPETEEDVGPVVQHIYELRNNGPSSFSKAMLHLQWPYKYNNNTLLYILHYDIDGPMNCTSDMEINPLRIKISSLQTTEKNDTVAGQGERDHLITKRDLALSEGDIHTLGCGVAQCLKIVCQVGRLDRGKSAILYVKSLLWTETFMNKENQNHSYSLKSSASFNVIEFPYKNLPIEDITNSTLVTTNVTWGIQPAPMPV
T4 sequence (P05106 27-718, chain 2 of 2): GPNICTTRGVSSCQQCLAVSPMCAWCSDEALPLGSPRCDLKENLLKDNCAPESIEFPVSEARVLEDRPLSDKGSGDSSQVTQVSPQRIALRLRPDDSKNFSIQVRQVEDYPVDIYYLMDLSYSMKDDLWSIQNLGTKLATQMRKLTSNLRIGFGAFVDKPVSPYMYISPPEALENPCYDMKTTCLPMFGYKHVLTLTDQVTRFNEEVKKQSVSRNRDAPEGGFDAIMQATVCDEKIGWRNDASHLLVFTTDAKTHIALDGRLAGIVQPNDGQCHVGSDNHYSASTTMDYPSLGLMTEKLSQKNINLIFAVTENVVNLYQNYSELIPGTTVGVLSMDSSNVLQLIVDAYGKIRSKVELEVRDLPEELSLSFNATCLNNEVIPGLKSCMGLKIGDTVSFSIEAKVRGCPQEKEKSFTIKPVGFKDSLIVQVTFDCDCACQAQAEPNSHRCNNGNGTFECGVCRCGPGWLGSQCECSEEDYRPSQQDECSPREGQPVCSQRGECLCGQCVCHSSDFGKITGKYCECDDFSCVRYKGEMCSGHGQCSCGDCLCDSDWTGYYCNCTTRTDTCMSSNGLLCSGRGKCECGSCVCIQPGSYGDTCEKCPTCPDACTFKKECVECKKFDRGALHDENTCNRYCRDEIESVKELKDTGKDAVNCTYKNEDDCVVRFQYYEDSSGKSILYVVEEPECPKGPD
T1 sequence (P06756 31-992 limits assumed): as the sequence (P06756 31-992, chain 1 of 2) above
T1 sequence (P05106 27-718 limits assumed): as the sequence (P05106 27-718, chain 2 of 2) above
T3 sequence (P13612 34-1032, chain 1 of 2): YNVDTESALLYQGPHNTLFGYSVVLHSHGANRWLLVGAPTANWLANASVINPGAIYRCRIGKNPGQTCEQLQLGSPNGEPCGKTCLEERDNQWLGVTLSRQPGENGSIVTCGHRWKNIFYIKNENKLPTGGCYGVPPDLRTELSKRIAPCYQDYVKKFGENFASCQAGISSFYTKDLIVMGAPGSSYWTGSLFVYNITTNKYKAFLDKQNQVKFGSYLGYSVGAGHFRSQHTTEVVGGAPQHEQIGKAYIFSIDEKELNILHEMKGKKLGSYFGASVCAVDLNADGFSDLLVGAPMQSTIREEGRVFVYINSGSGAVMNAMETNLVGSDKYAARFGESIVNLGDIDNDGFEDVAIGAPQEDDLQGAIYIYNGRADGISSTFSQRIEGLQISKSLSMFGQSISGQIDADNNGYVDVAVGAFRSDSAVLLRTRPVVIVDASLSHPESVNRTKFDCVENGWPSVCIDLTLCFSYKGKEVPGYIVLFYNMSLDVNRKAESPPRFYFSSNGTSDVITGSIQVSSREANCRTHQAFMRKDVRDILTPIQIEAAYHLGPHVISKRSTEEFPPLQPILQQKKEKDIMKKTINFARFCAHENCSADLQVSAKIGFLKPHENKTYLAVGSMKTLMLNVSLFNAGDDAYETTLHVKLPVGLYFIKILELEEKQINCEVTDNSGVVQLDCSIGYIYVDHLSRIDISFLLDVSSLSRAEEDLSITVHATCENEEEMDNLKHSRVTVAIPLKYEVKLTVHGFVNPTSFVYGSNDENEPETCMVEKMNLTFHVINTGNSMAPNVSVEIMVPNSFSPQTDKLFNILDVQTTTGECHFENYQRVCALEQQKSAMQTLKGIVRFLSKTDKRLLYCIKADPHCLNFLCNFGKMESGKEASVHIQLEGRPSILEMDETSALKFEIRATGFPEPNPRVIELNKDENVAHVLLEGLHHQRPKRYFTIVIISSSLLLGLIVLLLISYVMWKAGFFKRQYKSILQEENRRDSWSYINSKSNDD
T3 sequence (P05556 21-798, chain 2 of 2): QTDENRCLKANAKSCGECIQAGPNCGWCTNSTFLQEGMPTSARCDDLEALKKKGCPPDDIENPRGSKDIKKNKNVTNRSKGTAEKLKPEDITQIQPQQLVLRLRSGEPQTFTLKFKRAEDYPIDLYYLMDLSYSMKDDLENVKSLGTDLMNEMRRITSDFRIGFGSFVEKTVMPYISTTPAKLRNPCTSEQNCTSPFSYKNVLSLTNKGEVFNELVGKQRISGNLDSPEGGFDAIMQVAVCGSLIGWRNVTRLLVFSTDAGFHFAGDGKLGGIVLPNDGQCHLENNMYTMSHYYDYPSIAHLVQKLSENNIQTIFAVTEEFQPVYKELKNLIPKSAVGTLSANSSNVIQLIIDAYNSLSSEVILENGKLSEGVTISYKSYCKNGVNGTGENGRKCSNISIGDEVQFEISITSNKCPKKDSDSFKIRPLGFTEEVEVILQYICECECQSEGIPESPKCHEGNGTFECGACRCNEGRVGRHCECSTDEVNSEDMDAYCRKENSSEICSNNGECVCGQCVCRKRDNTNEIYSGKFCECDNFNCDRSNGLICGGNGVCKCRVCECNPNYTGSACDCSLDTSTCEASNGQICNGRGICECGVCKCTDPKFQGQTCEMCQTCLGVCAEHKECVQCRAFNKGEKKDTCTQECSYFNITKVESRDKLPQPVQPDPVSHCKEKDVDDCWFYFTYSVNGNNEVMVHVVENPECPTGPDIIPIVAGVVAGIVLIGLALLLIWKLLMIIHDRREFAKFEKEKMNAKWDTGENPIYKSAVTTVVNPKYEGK
T2 sequence (P13612 34-1032): as the sequence (P13612 34-1032, chain 1 of 2) above
T2 sequence (P05556 21-798): as the sequence (P05556 21-798, chain 2 of 2) above
integrin αvβ3 on CHO cells expressing recombinant αvβ3 (β3-CHO) and on proteoglycan-deficient pgs745 cells (β3-745) (human), sequence (P05106 27-788): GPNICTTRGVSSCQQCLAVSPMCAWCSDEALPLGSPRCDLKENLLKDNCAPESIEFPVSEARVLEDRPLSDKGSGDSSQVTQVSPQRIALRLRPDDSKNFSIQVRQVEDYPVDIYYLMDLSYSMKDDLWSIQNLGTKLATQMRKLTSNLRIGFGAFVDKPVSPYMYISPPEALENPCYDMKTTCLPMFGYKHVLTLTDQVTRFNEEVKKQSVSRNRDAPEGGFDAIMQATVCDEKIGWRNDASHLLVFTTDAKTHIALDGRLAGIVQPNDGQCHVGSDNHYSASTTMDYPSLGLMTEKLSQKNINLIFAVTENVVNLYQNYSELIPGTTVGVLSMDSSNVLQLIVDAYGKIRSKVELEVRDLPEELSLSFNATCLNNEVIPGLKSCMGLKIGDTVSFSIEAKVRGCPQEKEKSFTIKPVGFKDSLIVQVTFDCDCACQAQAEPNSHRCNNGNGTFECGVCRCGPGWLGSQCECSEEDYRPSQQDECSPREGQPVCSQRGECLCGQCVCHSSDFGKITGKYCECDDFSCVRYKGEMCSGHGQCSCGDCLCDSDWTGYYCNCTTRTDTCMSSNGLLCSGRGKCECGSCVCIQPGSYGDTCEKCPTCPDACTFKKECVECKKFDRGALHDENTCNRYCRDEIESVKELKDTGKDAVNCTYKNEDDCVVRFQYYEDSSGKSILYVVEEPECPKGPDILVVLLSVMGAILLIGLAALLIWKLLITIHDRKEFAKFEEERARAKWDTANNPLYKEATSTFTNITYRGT

binding to soluble αvβ3 (soluble integrin αvβ3): bound
Molecule: disintegrin domain of ADAM15: a known αvβ3 ligand, positive control [reference compound]

adhesion of β3-CHO cells to immobilized sPLA2-IIA in the presence of the antibody (%) [3]: 30%
Molecule: mAb 7E3 (specific to human β3 subunit, function blocking) (antibody)

binding to soluble αvβ3 (soluble integrin αvβ3): reduced the binding
B5: R100E: sPLA2-IIA mutant, Arg-100 mutated to Glu (protein)
chain: NLVNFHRMIKLTTGKEAALSYGFYGCHCGVGGRGSPKDATDRCCVTHDCCYKRLEKRGCGTKFLSYKFSNSGSRITCAKQDSCRSQLCECDKAAATCFAENKTTYNKKYQYYSNKHCRGSTPRC
modifications: left off: small tags and cut ends
notes: sPLA2-IIA mutant, Arg-100 mutated to Glu

binding to soluble αvβ3 (soluble integrin αvβ3): reduced the binding
B7: R74E: sPLA2-IIA mutant, Arg-74 mutated to Glu (protein)
chain: NLVNFHRMIKLTTGKEAALSYGFYGCHCGVGGRGSPKDATDRCCVTHDCCYKRLEKRGCGTKFLSYKFSNSGSEITCAKQDSCRSQLCECDKAAATCFARNKTTYNKKYQYYSNKHCRGSTPRC
modifications: left off: small tags and cut ends
notes: sPLA2-IIA mutant, Arg-74 mutated to Glu

Kd [8]: 44.7 nM
B8: sPLA2-IIA H47Q mutant (catalytically inactive) (enzyme, human, UniProt P14555 21-144, looked up)
chain: NLVNFHRMIKLTTGKEAALSYGFYGCHCGVGGRGSPKDATDRCCVTQDCCYKRLEKRGCGTKFLSYKFSNSGSRITCAKQDSCRSQLCECDKAAATCFARNKTTYNKKYQYYSNKHCRGSTPRC
notes: mature; the printed positions appear to count on the mature protein, not on the precursor entry P14555; also called H47Q sPLA2-IIA; not shown: N-terminal vector-encoded residues with His tag from the PET28a/amp vector

Kd [8]: 1080 nM
B9: sPLA2-IIA R74E/R100E mutant (integrin-binding-defective) (enzyme, human, UniProt P14555 21-144, looked up)
chain: NLVNFHRMIKLTTGKEAALSYGFYGCHCGVGGRGSPKDATDRCCVTHDCCYKRLEKRGCGTKFLSYKFSNSGSEITCAKQDSCRSQLCECDKAAATCFAENKTTYNKKYQYYSNKHCRGSTPRC
notes: mature; the printed positions appear to count on the mature protein; not shown: N-terminal vector-encoded residues with His tag from the PET28a/amp vector

Further lines, the molecule ahead of its results:

Molecule: CCc1c(C(=O)C(N)=O)c2c(OCC(=O)OC)cccc2n1Cc1ccccc1 [S-3013/LY333013]
therapeutic effect in rheumatoid arthritis [1]: failed to demonstrate a significant therapeutic effect
therapeutic effect in asthma [2]: failed to demonstrate a significant therapeutic effect

Molecule: CCc1c(C(=O)C(N)=O)c2c(OCC(=O)[O-])cccc2n1Cc1ccccc1.[Na+] [S-5920/LY315920Na]
therapeutic effect in rheumatoid arthritis [1]: failed to demonstrate a significant therapeutic effect
therapeutic effect in asthma [2]: failed to demonstrate a significant therapeutic effect

Molecule: Cc1ccccc1NC(=O)Nc1ccc(CC(=O)N[C@@H](CCCCNC(=O)/C=C/c2cccnc2)C(=O)N[C@@H](CCCC(=O)O)C(=O)NC2(C(N)=O)CCCCC2)cc1 [LLP2A, reference compound]
blocking of α4β1 binding to sPLA2-IIA in transfected K562 cells (integrin α4β1): did not block

B1: wt sPLA2-IIA (secretory phospholipase A2 group IIA) (enzyme)
chain: NLVNFHRMIKLTTGKEAALSYGFYGCHCGVGGRGSPKDATDRCCVTHDCCYKRLEKRGCGTKFLSYKFSNSGSRITCAKQDSCRSQLCECDKAAATCFARNKTTYNKKYQYYSNKHCRGSTPRC
modifications: FITC label in the flow cytometry assay only (sites not given) ; FITC label (sites not given) in the flow cytometry assay only; the other assays used unlabelled protein.
notes: the form is read from the printed primers; also called FITC-sPLA2-IIA; FITC-labeled sPLA2-IIA; not shown: N-terminal vector-encoded residues with the His tag from the PET28a/amp vector (insert in the Bam HI site)
binding result [4]: binds
Kd [5]: 211 nM

B2: H47Q: catalytically inactive mutant of sPLA2-IIA, His-47 mutated to Gln (protein)
chain: NLVNFHRMIKLTTGKEAALSYGFYGCHCGVGGRGSPKDATDRCCVTQDCCYKRLEKRGCGTKFLSYKFSNSGSRITCAKQDSCRSQLCECDKAAATCFARNKTTYNKKYQYYSNKHCRGSTPRC
modifications: left off: small tags and cut ends
ERK1/2 activation in U937 cells (ERK1/2): induced
proliferation of monocytic U937 cells [6]: induced robust proliferation
proliferation of α4-K562 cells (α4-K562 cells): induced proliferation
PLA2 activity [7]: reduced PLA2 activity
binding to soluble αvβ3 (soluble integrin αvβ3): did not affect the binding
proliferation of αvβ3-K562 cells (αvβ3-K562 cells): induced proliferation

B3: R53E: sPLA2-IIA mutant, Arg-53 mutated to Glu (protein)
chain: NLVNFHRMIKLTTGKEAALSYGFYGCHCGVGGRGSPKDATDRCCVTHDCCYKELEKRGCGTKFLSYKFSNSGSRITCAKQDSCRSQLCECDKAAATCFARNKTTYNKKYQYYSNKHCRGSTPRC
modifications: left off: small tags and cut ends
notes: sPLA2-IIA mutant, Arg-53 mutated to Glu
binding to soluble αvβ3 (soluble integrin αvβ3): little or no effect

B4: R42E: sPLA2-IIA mutant, Arg-42 mutated to Glu (protein)
chain: NLVNFHRMIKLTTGKEAALSYGFYGCHCGVGGRGSPKDATDECCVTHDCCYKRLEKRGCGTKFLSYKFSNSGSRITCAKQDSCRSQLCECDKAAATCFARNKTTYNKKYQYYSNKHCRGSTPRC
modifications: left off: small tags and cut ends
notes: sPLA2-IIA mutant, Arg-42 mutated to Glu
binding to soluble αvβ3 (soluble integrin αvβ3): little or no effect

B6: R74E/R100E: integrin-binding-defective combined mutant of sPLA2-IIA, Arg-74 and Arg-100 mutated to Glu (protein)
chain: NLVNFHRMIKLTTGKEAALSYGFYGCHCGVGGRGSPKDATDRCCVTHDCCYKRLEKRGCGTKFLSYKFSNSGSEITCAKQDSCRSQLCECDKAAATCFAENKTTYNKKYQYYSNKHCRGSTPRC
modifications: left off: small tags and cut ends
ERK1/2 activation in U937 cells (ERK1/2): did not induce
proliferation of monocytic U937 cells [6]: did not
proliferation of α4-K562 cells (α4-K562 cells): did not induce proliferation
PLA2 activity [7]: did not affect PLA2 activity
binding to soluble αvβ3 (soluble integrin αvβ3): effectively reduced the binding
proliferation of αvβ3-K562 cells (αvβ3-K562 cells): did not induce proliferation
